This note sets out measurements from the Human Domainome abundance scans (Beltran et al. 2025).

B1: Segment polarity protein dishevelled homolog DVL-3, residues 2 to 81; numbered along this chain, Q92997 (parent)
chain: GETKIIYHLDGQETPYLVKLPLPAERVTLADFKGVLQRPSYKFFFKSMDDDFGVVKEEISDDNAKLPCFNGRVVSWLVSA

± gives the uncertainty stated by the source.

In this data set the parent is B1. Description: abundance fitness (aPCA) (normalised: wild type 0, dead -1); higher = more abundant; growth selection in yeast, the domain comes from the species named. The note with it: Homo sapiens.
With GETKIIYHLDGQETPYLVKLGLPAERVTLADFKGVLQRPSYKFFFKSMDDDFGVVKEEISDDNAKLPCFNGRVVSWLVSA [P21G], the abundance fitness is -0.56 ± 0.066. On to GETKIIYHLDGQETPYLVKLNLPAERVTLADFKGVLQRPSYKFFFKSMDDDFGVVKEEISDDNAKLPCFNGRVVSWLVSA [P21N], for which the abundance fitness was 0.003 ± 0.091. As for GETKIIYHLDGQETPYLVKLPLPGERVTLADFKGVLQRPSYKFFFKSMDDDFGVVKEEISDDNAKLPCFNGRVVSWLVSA [A24G], the abundance fitness was -0.168 ± 0.048. Next, GETKIIYHLDGQETPYLVKLPLPIERVTLADFKGVLQRPSYKFFFKSMDDDFGVVKEEISDDNAKLPCFNGRVVSWLVSA [A24I]: -0.431 ± 0.18; GETKIIYHLDGQETPYLVKLPLPPERVTLADFKGVLQRPSYKFFFKSMDDDFGVVKEEISDDNAKLPCFNGRVVSWLVSA [A24P]: 0.17 ± 0.062. Then GETKIIYHLDGQETPYLVKLPLPEERVTLADFKGVLQRPSYKFFFKSMDDDFGVVKEEISDDNAKLPCFNGRVVSWLVSA [A24E], with -0.415 ± 0.087; and GETKIIYHLDGQETPYLVKLPLPRERVTLADFKGVLQRPSYKFFFKSMDDDFGVVKEEISDDNAKLPCFNGRVVSWLVSA [A24R], with -0.492 ± 0.062. Regarding GETKIIYHLDGQETPYLVKLPLPQERVTLADFKGVLQRPSYKFFFKSMDDDFGVVKEEISDDNAKLPCFNGRVVSWLVSA [A24Q], the abundance fitness is -0.074 ± 0.084. Then GETKIIYHLDGQETPYLVKLPLPNERVTLADFKGVLQRPSYKFFFKSMDDDFGVVKEEISDDNAKLPCFNGRVVSWLVSA [A24N], with -0.415 ± 0.15. Turning to GETKIIYHLDGQETPYLVKLPLPKERVTLADFKGVLQRPSYKFFFKSMDDDFGVVKEEISDDNAKLPCFNGRVVSWLVSA [A24K], the abundance fitness is -0.174 ± 0.1.

Turning to GETKIIYHLDGQETPYLVKLPLPTERVTLADFKGVLQRPSYKFFFKSMDDDFGVVKEEISDDNAKLPCFNGRVVSWLVSA [A24T], the abundance fitness is -0.51 ± 0.11. Next, GETKIIYHLDGQETPYLVKLPLPFERVTLADFKGVLQRPSYKFFFKSMDDDFGVVKEEISDDNAKLPCFNGRVVSWLVSA [A24F]: -0.549 ± 0.15; GETKIIYHLDGQETPYLVKLPLPHERVTLADFKGVLQRPSYKFFFKSMDDDFGVVKEEISDDNAKLPCFNGRVVSWLVSA [A24H]: -0.505 ± 0.17. As for GETKIIYHLDGQETPYLVKLPLPCERVTLADFKGVLQRPSYKFFFKSMDDDFGVVKEEISDDNAKLPCFNGRVVSWLVSA [A24C], the abundance fitness was -0.107 ± 0.088.

Take GETKIIYHLDGQETPYLVKLPLPSERVTLADFKGVLQRPSYKFFFKSMDDDFGVVKEEISDDNAKLPCFNGRVVSWLVSA [A24S]: the abundance fitness is -0.03 ± 0.056. Next, GETKIIYHLDGQETPYLVKLPLPDERVTLADFKGVLQRPSYKFFFKSMDDDFGVVKEEISDDNAKLPCFNGRVVSWLVSA [A24D]: -0.54 ± 0.15; GETKIIYHLDGQETPYLVKLPLPMERVTLADFKGVLQRPSYKFFFKSMDDDFGVVKEEISDDNAKLPCFNGRVVSWLVSA [A24M]: -0.546 ± 0.15; GETKIIYHLDGQETPYLVKLPLPLERVTLADFKGVLQRPSYKFFFKSMDDDFGVVKEEISDDNAKLPCFNGRVVSWLVSA [A24L]: -0.356 ± 0.063. Next, GETKIIYHLDGQETPYLVKLPQPAERVTLADFKGVLQRPSYKFFFKSMDDDFGVVKEEISDDNAKLPCFNGRVVSWLVSA [L22Q]: -0.429 ± 0.1; GETKIIYHLDGQETPYLVKLPFPAERVTLADFKGVLQRPSYKFFFKSMDDDFGVVKEEISDDNAKLPCFNGRVVSWLVSA [L22F]: -0.502 ± 0.17.

As for GETKIIYHLDGQETPYLVKLPWPAERVTLADFKGVLQRPSYKFFFKSMDDDFGVVKEEISDDNAKLPCFNGRVVSWLVSA [L22W], the abundance fitness is -0.578 ± 0.084. Then GETKIIYHLDGQETPYLVKLPRPAERVTLADFKGVLQRPSYKFFFKSMDDDFGVVKEEISDDNAKLPCFNGRVVSWLVSA [L22R], with -0.656 ± 0.071. In the case of GETKIIYHLDGQETPYLVKLPVPAERVTLADFKGVLQRPSYKFFFKSMDDDFGVVKEEISDDNAKLPCFNGRVVSWLVSA [L22V], the abundance fitness came out at 0.059 ± 0.047. In the case of GETKIIYHLDGQETPYLVKLPSPAERVTLADFKGVLQRPSYKFFFKSMDDDFGVVKEEISDDNAKLPCFNGRVVSWLVSA [L22S], the abundance fitness was -0.822 ± 0.1. GETKIIYHLDGQETPYLVKLPHPAERVTLADFKGVLQRPSYKFFFKSMDDDFGVVKEEISDDNAKLPCFNGRVVSWLVSA [L22H]: the abundance fitness is -0.617 ± 0.17. Next, GETKIIYHLDGQETPYLVKLPTPAERVTLADFKGVLQRPSYKFFFKSMDDDFGVVKEEISDDNAKLPCFNGRVVSWLVSA [L22T]: -0.598 ± 0.11; GETKIIYHLDGQETPYLVKLPGPAERVTLADFKGVLQRPSYKFFFKSMDDDFGVVKEEISDDNAKLPCFNGRVVSWLVSA [L22G]: -0.856 ± 0.083; GETKIIYHLDGQETPYLVKLPPPAERVTLADFKGVLQRPSYKFFFKSMDDDFGVVKEEISDDNAKLPCFNGRVVSWLVSA [L22P]: -0.645 ± 0.12.

As to GETKIIYHLDGQETPYLVKLPKPAERVTLADFKGVLQRPSYKFFFKSMDDDFGVVKEEISDDNAKLPCFNGRVVSWLVSA [L22K], the abundance fitness is -0.019 ± 0.068. Then GETKIIYHLDGQETPYLVKLPAPAERVTLADFKGVLQRPSYKFFFKSMDDDFGVVKEEISDDNAKLPCFNGRVVSWLVSA [L22A], with -0.604 ± 0.085; and GETKIIYHLDGQETPYLVKLPCPAERVTLADFKGVLQRPSYKFFFKSMDDDFGVVKEEISDDNAKLPCFNGRVVSWLVSA [L22C], with -0.231 ± 0.1; and GETKIIYHLDGQETPYLVKLPDPAERVTLADFKGVLQRPSYKFFFKSMDDDFGVVKEEISDDNAKLPCFNGRVVSWLVSA [L22D], with -0.574 ± 0.12. Then GETKIIYHLDGQETPYLVKLPEPAERVTLADFKGVLQRPSYKFFFKSMDDDFGVVKEEISDDNAKLPCFNGRVVSWLVSA [L22E], with -0.617 ± 0.12. Then GETKIIYHLDGQETPYLVKLPMPAERVTLADFKGVLQRPSYKFFFKSMDDDFGVVKEEISDDNAKLPCFNGRVVSWLVSA [L22M], with -0.017 ± 0.073; and GETKIIYHLDGQETPYLVKLPNPAERVTLADFKGVLQRPSYKFFFKSMDDDFGVVKEEISDDNAKLPCFNGRVVSWLVSA [L22N], with -0.923 ± 0.24.
